Measurements published in patent US20130004519A1 (published 2013).

Legend:
[1] = target: T1, His-tagged human tenascin-C (human, UniProt P24821 23-2201); experiment: SPR (Biacore 2000), tenascin-C-his on CM5 chip, SMOC1 as analyte 3-300 nM, Langmuir 1:1 model, apparent KD
T1 construct: mature; The same construct was coupled to Sepharose 4B, coupled to the CM5 chip and expressed in COS cells for co-immunoprecipitation; also called TNC; hTNC; not shown: His tag
Description: Surface Plasmon Resonance Spectroscopy. Surface plasmon resonance spectroscopy was performed using a Biacore 2000 (BIAcore AB) system. Purified human tenascin-his protein was coupled in 25 mM sodium acetate pH 5 with a flow rate of 5 μl/min to a CM5 chip beforehand activated with N-hydroxysuccinimide and 1-ethyl-3-(3-dimethylaminopropyl)carbodiimide hydrochloride. Unbound reactive groups were then saturated with 1 M ethanolamine hydrochloride, pH 8.5. Experiments were carried out using increasing concentrations (3, 10, 30, 100 and 300 nM) of SMOC1 diluted in running buffer (pH 7.4, 20 mM Hepes, 150 mM NaCl, 2 mM CaCl2, 0.005% P20). The analyte was passed over the sensor chip with a constant flow rate of 25 μl/min for 240 s, and dissociation was measured over 500 s. Fittings of the data, overlay plots, and calculation of KD values were done with BIAevaluation software 4.1.
Interaction between tenascin-C and SMOC1 by Surface Plasmon Resonance Spectroscopy. In order to firmly establish binding between SMOC1 and tenascin-C, the present inventors performed Surface Plasmon Resonance Spectroscopy. Purified his-tagged tenascin-C was coupled to a CM5 chip and SMOC1 were tested as soluble analyte at increasing concentrations. Associations and dissociations of the obtained binding curves were analyzed in a Langmuir 1:1 binding model. […]

[2] = target: T2, horse fibronectin coupled to CNBr-activated Sepharose 4B (horse, UniProt Q28377 32-2477, limits assumed); experiment: pull-down from HEK293 conditioned medium on horse fibronectin-Sepharose 4B, nanoLC-MSMS
T2 construct: Second control column of the pull-down; also called fibronectin column; FN-column

[3] = target: T1, His-tagged human tenascin-C; experiment: pull-down on tenascin-C-Sepharose 4B, multiple reaction monitoring

T2 sequence (Q28377 32-2477 limits assumed): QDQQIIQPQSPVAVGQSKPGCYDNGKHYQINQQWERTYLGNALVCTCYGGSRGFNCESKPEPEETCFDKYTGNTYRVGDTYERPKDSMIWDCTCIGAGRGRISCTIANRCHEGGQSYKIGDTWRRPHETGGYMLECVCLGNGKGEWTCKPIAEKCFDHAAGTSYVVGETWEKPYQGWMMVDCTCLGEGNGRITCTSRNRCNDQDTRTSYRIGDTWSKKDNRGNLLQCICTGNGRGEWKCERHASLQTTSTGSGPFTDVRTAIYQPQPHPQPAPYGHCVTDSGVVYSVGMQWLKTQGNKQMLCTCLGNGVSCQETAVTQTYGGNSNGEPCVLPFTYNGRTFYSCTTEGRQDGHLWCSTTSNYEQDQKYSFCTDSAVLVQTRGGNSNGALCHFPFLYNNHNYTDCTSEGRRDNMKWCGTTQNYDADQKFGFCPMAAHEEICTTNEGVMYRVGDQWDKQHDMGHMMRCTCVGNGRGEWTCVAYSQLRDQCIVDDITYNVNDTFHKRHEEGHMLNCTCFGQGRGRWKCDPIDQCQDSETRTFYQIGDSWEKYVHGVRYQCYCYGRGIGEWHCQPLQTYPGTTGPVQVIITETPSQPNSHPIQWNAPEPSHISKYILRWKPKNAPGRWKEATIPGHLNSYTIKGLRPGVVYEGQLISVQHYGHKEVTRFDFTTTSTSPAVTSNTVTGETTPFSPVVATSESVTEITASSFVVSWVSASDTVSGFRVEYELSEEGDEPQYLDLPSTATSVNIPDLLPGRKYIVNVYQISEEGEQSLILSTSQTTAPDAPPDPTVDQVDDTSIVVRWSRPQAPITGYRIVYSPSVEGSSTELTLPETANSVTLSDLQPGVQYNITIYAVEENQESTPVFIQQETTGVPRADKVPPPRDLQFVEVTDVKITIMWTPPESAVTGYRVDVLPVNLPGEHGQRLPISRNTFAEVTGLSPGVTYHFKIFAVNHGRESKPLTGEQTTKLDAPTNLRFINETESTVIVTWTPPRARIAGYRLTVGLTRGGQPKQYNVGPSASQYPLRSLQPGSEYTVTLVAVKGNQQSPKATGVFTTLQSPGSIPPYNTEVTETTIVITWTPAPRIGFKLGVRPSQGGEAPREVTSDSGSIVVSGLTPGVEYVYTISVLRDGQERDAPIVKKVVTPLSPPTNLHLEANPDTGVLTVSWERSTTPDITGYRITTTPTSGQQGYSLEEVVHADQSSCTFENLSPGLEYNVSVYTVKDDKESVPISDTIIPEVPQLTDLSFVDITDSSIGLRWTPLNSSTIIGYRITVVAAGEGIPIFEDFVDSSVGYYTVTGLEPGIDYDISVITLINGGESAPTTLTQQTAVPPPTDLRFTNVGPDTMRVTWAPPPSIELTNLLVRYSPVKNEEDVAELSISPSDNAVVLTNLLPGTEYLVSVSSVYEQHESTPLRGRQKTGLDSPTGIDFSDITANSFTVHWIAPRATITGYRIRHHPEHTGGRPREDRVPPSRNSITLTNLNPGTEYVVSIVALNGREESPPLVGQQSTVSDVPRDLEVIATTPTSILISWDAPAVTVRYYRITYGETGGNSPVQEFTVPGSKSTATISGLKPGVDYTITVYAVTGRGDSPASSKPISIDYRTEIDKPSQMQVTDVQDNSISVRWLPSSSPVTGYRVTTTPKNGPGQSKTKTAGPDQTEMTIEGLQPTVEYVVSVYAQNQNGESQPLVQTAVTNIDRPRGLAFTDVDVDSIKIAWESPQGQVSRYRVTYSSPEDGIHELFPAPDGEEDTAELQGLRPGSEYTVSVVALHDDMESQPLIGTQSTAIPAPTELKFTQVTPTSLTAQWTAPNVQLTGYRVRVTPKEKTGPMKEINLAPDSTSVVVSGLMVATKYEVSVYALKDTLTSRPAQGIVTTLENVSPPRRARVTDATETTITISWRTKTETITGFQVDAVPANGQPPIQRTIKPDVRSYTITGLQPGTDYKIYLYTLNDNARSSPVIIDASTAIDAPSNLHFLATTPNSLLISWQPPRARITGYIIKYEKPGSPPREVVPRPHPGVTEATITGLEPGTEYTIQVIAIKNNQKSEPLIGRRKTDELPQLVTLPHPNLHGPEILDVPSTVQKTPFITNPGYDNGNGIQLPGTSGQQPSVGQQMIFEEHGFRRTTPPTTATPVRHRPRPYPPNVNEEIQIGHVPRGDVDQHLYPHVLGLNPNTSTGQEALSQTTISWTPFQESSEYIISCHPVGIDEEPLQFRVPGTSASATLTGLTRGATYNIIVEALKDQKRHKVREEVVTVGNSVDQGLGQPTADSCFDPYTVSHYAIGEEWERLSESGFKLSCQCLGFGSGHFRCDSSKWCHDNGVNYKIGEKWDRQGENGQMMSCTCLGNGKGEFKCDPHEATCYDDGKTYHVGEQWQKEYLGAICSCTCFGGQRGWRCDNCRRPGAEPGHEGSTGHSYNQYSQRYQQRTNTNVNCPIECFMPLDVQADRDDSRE
T1 sequence (P24821 23-2201): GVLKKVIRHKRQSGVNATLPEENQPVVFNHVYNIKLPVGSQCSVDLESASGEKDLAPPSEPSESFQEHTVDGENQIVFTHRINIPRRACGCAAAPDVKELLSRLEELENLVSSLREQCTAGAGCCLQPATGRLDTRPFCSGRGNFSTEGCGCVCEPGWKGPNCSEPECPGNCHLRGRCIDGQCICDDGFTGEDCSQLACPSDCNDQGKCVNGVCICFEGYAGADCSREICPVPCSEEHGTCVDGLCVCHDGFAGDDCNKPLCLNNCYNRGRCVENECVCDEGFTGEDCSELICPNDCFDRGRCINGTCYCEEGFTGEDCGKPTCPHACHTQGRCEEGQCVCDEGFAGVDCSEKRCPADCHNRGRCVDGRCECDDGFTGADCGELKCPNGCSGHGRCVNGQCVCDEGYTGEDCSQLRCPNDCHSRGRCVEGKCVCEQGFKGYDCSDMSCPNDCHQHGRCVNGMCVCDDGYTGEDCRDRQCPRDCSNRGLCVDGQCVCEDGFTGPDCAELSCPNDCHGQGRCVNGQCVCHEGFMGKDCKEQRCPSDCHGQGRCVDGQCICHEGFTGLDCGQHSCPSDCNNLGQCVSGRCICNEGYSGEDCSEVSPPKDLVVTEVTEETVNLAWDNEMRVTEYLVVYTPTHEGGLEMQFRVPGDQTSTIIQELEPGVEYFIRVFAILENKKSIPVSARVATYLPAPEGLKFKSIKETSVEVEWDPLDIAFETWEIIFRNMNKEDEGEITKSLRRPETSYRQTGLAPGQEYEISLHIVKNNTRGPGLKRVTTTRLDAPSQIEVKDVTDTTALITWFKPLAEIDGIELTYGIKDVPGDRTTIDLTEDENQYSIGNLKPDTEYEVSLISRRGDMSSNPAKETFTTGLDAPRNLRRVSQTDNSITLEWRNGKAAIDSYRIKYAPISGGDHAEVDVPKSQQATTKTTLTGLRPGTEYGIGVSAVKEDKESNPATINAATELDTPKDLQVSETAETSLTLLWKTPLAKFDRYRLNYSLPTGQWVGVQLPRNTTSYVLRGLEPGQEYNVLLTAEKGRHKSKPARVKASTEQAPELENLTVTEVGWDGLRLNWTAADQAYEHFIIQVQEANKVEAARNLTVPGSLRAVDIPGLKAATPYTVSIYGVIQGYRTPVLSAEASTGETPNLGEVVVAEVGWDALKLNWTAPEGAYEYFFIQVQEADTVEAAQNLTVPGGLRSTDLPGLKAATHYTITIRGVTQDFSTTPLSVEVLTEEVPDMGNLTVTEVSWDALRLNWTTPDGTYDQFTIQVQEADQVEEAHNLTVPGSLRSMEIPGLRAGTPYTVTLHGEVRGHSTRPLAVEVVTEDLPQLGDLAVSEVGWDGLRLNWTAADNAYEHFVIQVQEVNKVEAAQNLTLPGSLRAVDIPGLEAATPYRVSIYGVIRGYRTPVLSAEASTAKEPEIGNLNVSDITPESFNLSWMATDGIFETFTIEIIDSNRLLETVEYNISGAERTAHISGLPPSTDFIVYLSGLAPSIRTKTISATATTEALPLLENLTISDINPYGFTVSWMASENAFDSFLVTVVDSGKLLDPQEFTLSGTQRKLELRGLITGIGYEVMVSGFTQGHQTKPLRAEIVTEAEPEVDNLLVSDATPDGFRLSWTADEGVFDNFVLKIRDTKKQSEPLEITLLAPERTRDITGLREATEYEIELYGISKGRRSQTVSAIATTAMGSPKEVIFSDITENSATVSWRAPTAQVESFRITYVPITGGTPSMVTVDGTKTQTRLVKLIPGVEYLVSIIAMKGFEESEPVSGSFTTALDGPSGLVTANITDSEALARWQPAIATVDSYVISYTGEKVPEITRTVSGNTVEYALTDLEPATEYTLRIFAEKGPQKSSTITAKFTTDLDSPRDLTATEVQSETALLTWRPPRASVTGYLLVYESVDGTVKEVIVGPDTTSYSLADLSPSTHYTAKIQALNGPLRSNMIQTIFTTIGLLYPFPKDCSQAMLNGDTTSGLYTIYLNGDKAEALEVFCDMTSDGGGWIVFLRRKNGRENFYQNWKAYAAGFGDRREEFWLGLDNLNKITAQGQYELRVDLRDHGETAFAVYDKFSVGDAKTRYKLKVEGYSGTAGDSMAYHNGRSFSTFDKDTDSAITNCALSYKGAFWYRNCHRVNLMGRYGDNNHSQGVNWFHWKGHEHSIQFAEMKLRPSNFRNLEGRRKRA

Row | Binder | Kd [1] | MASCOT Score (fibronectin) [2] | spectrum count (fibronectin) [2] | normalized enrichment (MRM), tenascin-C against control [3]
1 | human recombinant SMOC1 (soluble analyte in surface plasmon resonance) (other, UniProt Q9H4F8 27-434, looked up, mature; also called hSMOC1; not shown: C-terminal tag: either 6 histidines alone (SMOC1-his) or myc-DDK plus 6 histidines) HRTTGPRFLISDRDPQCNLHCSRTQPKPICASDGRSYESMCEYQRAKCRDPTLGVVHRGRCKDAGQSKCRLERAQALEQAKKPQEAVFVPECGEDGSFTQVQCHTYTGYCWCVTPDGKPISGSSVQNKTPVCSGSVTDKPLSQGNSGRKDDGSKPTPTMETQPVFDGDEITAPTLWIKHLVIKDSKLNNTNIRNSEKVYSCDQERQSALEEAQQNPREGIVIPECAPGGLYKPVQCHQSTGYCWCVLVDTGRPLPGTSTRYVMPSCESDARAKTTEADDPFKDRELPGCPEGKKMEFITSLLDALTTDMVQAINSAAPTGGGRFSEPDPSHTLEERVVHWYFSQLDSNSSNDINKREMKPFKRYVKKKAKPKKCARRFTDYCDLNKDKVISLPELKGCLGVSKEGRLV | 2.2 nM |  |  | 
2 | SPARC-related modular calcium-binding protein 1 (SMOC1) from HEK293 conditioned medium (other, human, UniProt Q9H4F8 27-434, looked up, Endogenous protein pulled down from medium) HRTTGPRFLISDRDPQCNLHCSRTQPKPICASDGRSYESMCEYQRAKCRDPTLGVVHRGRCKDAGQSKCRLERAQALEQAKKPQEAVFVPECGEDGSFTQVQCHTYTGYCWCVTPDGKPISGSSVQNKTPVCSGSVTDKPLSQGNSGRKDDGSKPTPTMETQPVFDGDEITAPTLWIKHLVIKDSKLNNTNIRNSEKVYSCDQERQSALEEAQQNPREGIVIPECAPGGLYKPVQCHQSTGYCWCVLVDTGRPLPGTSTRYVMPSCESDARAKTTEADDPFKDRELPGCPEGKKMEFITSLLDALTTDMVQAINSAAPTGGGRFSEPDPSHTLEERVVHWYFSQLDSNSSNDINKREMKPFKRYVKKKAKPKKCARRFTDYCDLNKDKVISLPELKGCLGVSKEGRLV |  | 0 | 0 | 4.5 fold
3 | Nidogen-2 (other, human, UniProt Q14112 31-1375, looked up, also called NID2) LHPDELFPHGESWGDQLLQEGDDESSAVVKLANPLHFYEARFSNLYVGTNGIISTQDFPRETQYVDYDFPTDFPAIAPFLADIDTSHGRGRVLYREDTSPAVLGLAARYVRAGFPRSARFTPTHAFLATWEQVGAYEEVKRGALPSGELNTFQAVLASDGSDSYALFLYPANGLQFLGTRPKESYNVQLQLPARVGFCRGEADDLKSEGPYFSLTSTEQSVKNLYQLSNLGIPGVWAFHIGSTSPLDNVRPAAVGDLSAAHSSVPLGRSFSHATALESDYNEDNLDYYDVNEEEAEYLPGEPEEALNGHSSIDVSFQSKVDTKPLEESSTLDPHTKEGTSLGEVGGPDLKGQVEPWDERETRSPAPPEVDRDSLAPSWETPPPYPENGSIQPYPDGGPVPSEMDVPPAHPEEEIVLRSYPASGHTTPLSRGTYEVGLEDNIGSNTEVFTYNAANKETCEHNHRQCSRHAFCTDYATGFCCHCQSKFYGNGKHCLPEGAPHRVNGKVSGHLHVGHTPVHFTDVDLHAYIVGNDGRAYTAISHIPQPAAQALLPLTPIGGLFGWLFALEKPGSENGFSLAGAAFTHDMEVTFYPGEETVRITQTAEGLDPENYLSIKTNIQGQVPYVSANFTAHISPYKELYHYSDSTVTSTSSRDYSLTFGAINQTWSYRIHQNITYQVCRHAPRHPSFPTTQQLNVDRVFALYNDEERVLRFAVTNQIGPVKEDSDPTPGNPCYDGSHMCDTTARCHPGTGVDYTCECASGYQGDGRNCVDENECATGFHRCGPNSVCINLPGSYRCECRSGYEFADDRHTCILITPPANPCEDGSHTCAPAGQARCVHHGGSTFSCACLPGYAGDGHQCTDVDECSENRCHPAATCYNTPGSFSCRCQPGYYGDGFQCIPDSTSSLTPCEQQQRHAQAQYAYPGARFHIPQCDEQGNFLPLQCHGSTGFCWCVDPDGHEVPGTQTPPGSTPPHCGPSPEPTQRPPTICERWRENLLEHYGGTPRDDQYVPQCDDLGHFIPLQCHGKSDFCWCVDKDGREVQGTRSQPGTTPACIPTVAPPMVRPTPRPDVTPPSVGTFLLYTQGQQIGYLPLNGTRLQKDAAKTLLSLHGSIIVGIDYDCRERMVYWTDVAGRTISRAGLELGAEPETIVNSGLISPEGLAIDHIRRTMYWTDSVLDKIESALLDGSERKVLFYTDLVNPRAIAVDPIRGNLYWTDWNREAPKIETSSLDGENRRILINTDIGLPNGLTFDPFSKLLCWADAGTKKLECTLPDGTGRRVIQNNLKYPFSIVSYADHFYHTDWRRDGVVSVNKHSGQFTDEYLPEQRSHLYGITAVYPYCPTGRK |  | 0 | 0 | 
4 | Phosphoglycerate kinase 1 (enzyme, human, UniProt P00558 2-417, looked up, also called PGK1) SLSNKLTLDKLDVKGKRVVMRVDFNVPMKNNQITNNQRIKAAVPSIKFCLDNGAKSVVLMSHLGRPDGVPMPDKYSLEPVAVELKSLLGKDVLFLKDCVGPEVEKACANPAAGSVILLENLRFHVEEEGKGKDASGNKVKAEPAKIEAFRASLSKLGDVYVNDAFGTAHRAHSSMVGVNLPQKAGGFLMKKELNYFAKALESPERPFLAILGGAKVADKIQLINNMLDKVNEMIIGGGMAFTFLKVLNNMEIGTSLFDEEGAKIVKDLMSKAEKNGVKITLPVDFVTADKFDENAKTGQATVASGIPAGWMGLDCGPESSKKYAEAVTRAKQIVWNGPVGVFEWEAFARGTKALMDEVVKATSRGCITIIGGGDTATCCAKWNTEDKVSHVSTGGGASLELLEGKVLPGVDALSNI |  | 100 | 6 | 
